# B1: library; numbered along this chain (parent)
# chain: MAAAAAAAAEQQSSNGPVKKSMREKAVERRSVNKEHNSNFKAGYIPIDEDRLHKTGLRGRKGNLAICVIILLFILAVINLIITLVIWAVIRIGPNGCDSMEFHESGLLRFKQVSDMGVIHPLYKSTVGGRRNENLVITGNNQPIVFQQGTTKLSVENNKTSITSDIGMQFFDPRTQNILFSTDYETHEFHLPSGVKSLNVQKASTERITSNATSDLNIKVDGRAIVRGNEGVFIMGKTIEFHMGGNMELKAENSIILNGSVMVSTTRLPSSSSGDQLGSGDWVRYKLCMCADGTLFKVQVTSQNMGCQISDNPCGNTH
# Variants of: B1
# Assay: SGCB cell-surface expression functional score (HA stain, bin4 vs bin1, normalised to synonymous) (log10 ratio); higher = more cell-surface SGCB (functional)
# Description: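 Deep mutational scan of full-length human SGCB (YFP-SGCB-HA, NNN codon sublibraries A-F) delivered by lentivirus at low MOI into ADG-HEK293 cells stably expressing SGCA, SGCD and SGCG. YFP-positive cells were stained for surface HA on unpermeabilized cells and FACS-sorted into bins. The functional score is log10(frequency in high bin 4 / frequency in low bin 1), normalised per chunk so that synonymous variants have mean 0 and SD 0.5. Scores are the median over codons and over duplicate biological replicates; scores below -0.5 are called non-functional. Scale: negative means deleterious.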
row,Variant,SGCB cell-surface expression functional score (log10)
1,MAAAAAAAAEQQSSNGPVKKSMREKAVERRSVNKEHNSNFKAGYIPIDEDRLHKTGLRGRKGNLAICVIILLFILAVINLIITLVIWAVIRIGPNGCDSMEFHESGLLRFKQVSDMGVIHPLYKSTVGGRRNENLVITGNNLPIVFQQGTTKLSVENNKTSITSDIGMQFFDPRTQNILFSTDYETHEFHLPSGVKSLNVQKASTERITSNATSDLNIKVDGRAIVRGNEGVFIMGKTIEFHMGGNMELKAENSIILNGSVMVSTTRLPSSSSGDQLGSGDWVRYKLCMCADGTLFKVQVTSQNMGCQISDNPCGNTH [Q142L],-0.54
2,MFAAAAAAAEQQSSNGPVKKSMREKAVERRSVNKEHNSNFKAGYIPIDEDRLHKTGLRGRKGNLAICVIILLFILAVINLIITLVIWAVIRIGPNGCDSMEFHESGLLRFKQVSDMGVIHPLYKSTVGGRRNENLVITGNNQPIVFQQGTTKLSVENNKTSITSDIGMQFFDPRTQNILFSTDYETHEFHLPSGVKSLNVQKASTERITSNATSDLNIKVDGRAIVRGNEGVFIMGKTIEFHMGGNMELKAENSIILNGSVMVSTTRLPSSSSGDQLGSGDWVRYKLCMCADGTLFKVQVTSQNMGCQISDNPCGNTH [A2F],-0.48
3,MAAAAAAAAEQQSSNGPVKKSMREKAVERRSVNKEHNSNFKAGYIPIDEDRLHKTELRGRKGNLAICVIILLFILAVINLIITLVIWAVIRIGPNGCDSMEFHESGLLRFKQVSDMGVIHPLYKSTVGGRRNENLVITGNNQPIVFQQGTTKLSVENNKTSITSDIGMQFFDPRTQNILFSTDYETHEFHLPSGVKSLNVQKASTERITSNATSDLNIKVDGRAIVRGNEGVFIMGKTIEFHMGGNMELKAENSIILNGSVMVSTTRLPSSSSGDQLGSGDWVRYKLCMCADGTLFKVQVTSQNMGCQISDNPCGNTH [G56E],-0.3
4,MAAAAARAAEQQSSNGPVKKSMREKAVERRSVNKEHNSNFKAGYIPIDEDRLHKTGLRGRKGNLAICVIILLFILAVINLIITLVIWAVIRIGPNGCDSMEFHESGLLRFKQVSDMGVIHPLYKSTVGGRRNENLVITGNNQPIVFQQGTTKLSVENNKTSITSDIGMQFFDPRTQNILFSTDYETHEFHLPSGVKSLNVQKASTERITSNATSDLNIKVDGRAIVRGNEGVFIMGKTIEFHMGGNMELKAENSIILNGSVMVSTTRLPSSSSGDQLGSGDWVRYKLCMCADGTLFKVQVTSQNMGCQISDNPCGNTH [A7R],0.24
5,MAAAAAAAAEQQSSNGPVKKSMREKAVERRSVNKEHNSNFKAGYIPIDEDRLHCTGLRGRKGNLAICVIILLFILAVINLIITLVIWAVIRIGPNGCDSMEFHESGLLRFKQVSDMGVIHPLYKSTVGGRRNENLVITGNNQPIVFQQGTTKLSVENNKTSITSDIGMQFFDPRTQNILFSTDYETHEFHLPSGVKSLNVQKASTERITSNATSDLNIKVDGRAIVRGNEGVFIMGKTIEFHMGGNMELKAENSIILNGSVMVSTTRLPSSSSGDQLGSGDWVRYKLCMCADGTLFKVQVTSQNMGCQISDNPCGNTH [K54C],0.29
6,MAAAAAAAAEQQSSNGPVKKSMREKAVERRSVNKEHNSNFKAGYIPIDEDRLHKTGVRGRKGNLAICVIILLFILAVINLIITLVIWAVIRIGPNGCDSMEFHESGLLRFKQVSDMGVIHPLYKSTVGGRRNENLVITGNNQPIVFQQGTTKLSVENNKTSITSDIGMQFFDPRTQNILFSTDYETHEFHLPSGVKSLNVQKASTERITSNATSDLNIKVDGRAIVRGNEGVFIMGKTIEFHMGGNMELKAENSIILNGSVMVSTTRLPSSSSGDQLGSGDWVRYKLCMCADGTLFKVQVTSQNMGCQISDNPCGNTH [L57V],0.2
7,MAAAAAAAAEQQSSNGPVKKSMREKAVERRSVNKEHNSNFKAGYIPIDEDRLHKTGLRGRKGNLAICVIILLFILAVINLIITLVIWAVIRIGPNGCDSMEFHESGLLRFKQVSDMGVIHPLYKSTVGGRRNENLVITGNNQPIVFQQGTTKLSVENNKTSITSDGGMQFFDPRTQNILFSTDYETHEFHLPSGVKSLNVQKASTERITSNATSDLNIKVDGRAIVRGNEGVFIMGKTIEFHMGGNMELKAENSIILNGSVMVSTTRLPSSSSGDQLGSGDWVRYKLCMCADGTLFKVQVTSQNMGCQISDNPCGNTH [I166G],-0.41
8,MAAAAAAAAEQQSSNGPVKKSMRRKAVERRSVNKEHNSNFKAGYIPIDEDRLHKTGLRGRKGNLAICVIILLFILAVINLIITLVIWAVIRIGPNGCDSMEFHESGLLRFKQVSDMGVIHPLYKSTVGGRRNENLVITGNNQPIVFQQGTTKLSVENNKTSITSDIGMQFFDPRTQNILFSTDYETHEFHLPSGVKSLNVQKASTERITSNATSDLNIKVDGRAIVRGNEGVFIMGKTIEFHMGGNMELKAENSIILNGSVMVSTTRLPSSSSGDQLGSGDWVRYKLCMCADGTLFKVQVTSQNMGCQISDNPCGNTH [E24R],-0.41
9,MAAAAAAAAEQQSSNGPVKKSMREKAVERRSVNKEHNSNFKAGYIPIDEDRLHKTGLRGRKGNLAICVIILLFILAVINLIITLVIWAVIRIGPNGCDSMEFHESGLLRFKQVSDMGVIHPLYKSTVGGRRNENLVITGNNQPIVFQQGTTKLSVENNKTSITSDIGMQFFDPRTQNILFSTDYETHEFHLPSGVKSLNVQKASTERITSNATSDLNIKVDGRAIVRGNEGVFIMGKTIEFHMGGNMWLKAENSIILNGSVMVSTTRLPSSSSGDQLGSGDWVRYKLCMCADGTLFKVQVTSQNMGCQISDNPCGNTH [E248W],0.116
10,MAAAAAAAAEQQSSNSPVKKSMREKAVERRSVNKEHNSNFKAGYIPIDEDRLHKTGLRGRKGNLAICVIILLFILAVINLIITLVIWAVIRIGPNGCDSMEFHESGLLRFKQVSDMGVIHPLYKSTVGGRRNENLVITGNNQPIVFQQGTTKLSVENNKTSITSDIGMQFFDPRTQNILFSTDYETHEFHLPSGVKSLNVQKASTERITSNATSDLNIKVDGRAIVRGNEGVFIMGKTIEFHMGGNMELKAENSIILNGSVMVSTTRLPSSSSGDQLGSGDWVRYKLCMCADGTLFKVQVTSQNMGCQISDNPCGNTH [G16S],0.37

# Source: the supplement of paper PMC10266784
